Source: the supplement of paper PMC7877785
± gives the uncertainty stated by the source.

Test: self-splicing fitness, log relative to wild type (ln ratio); higher = more splicing; Tetrahymena group I intron in knt gene, E. coli kanamycin selection, DiMSum; sequences stand for … in CUCUCU…GGAGGGAAAAGUUAUCAGGCAUGCACCUGGUAGCUAGUCUUUAAACCAAUAGAUUGCAUCGGUUUAAAAGGCAAGACCGUCAAAUUGCGGGAAAGGGGUCAACAGCCGUUCAGUACCAAGUCUCAGGGGAAACUUUGAGAUGGCCUUGCAAAGGGUAUGGUAAUAAGCUGACGGACAUGGUCCUAACCACGCAGCCAAGUCCUAAGUCAACAGAUCUUCUGUUGAUAUGGAUGCAGUUCACAGACUAAAUGUCGGUCGGGGAAGAUGUAUUCUUCUCAUAAGAUAUAGUCGGACCUCUCCUUAAUGGGAGCUAGCGGAUGAAGUGAUGCAACACUGGAGCCGCUGGGAACUAAUUUGUAUGCGAAAGUAUAUUGAUUAGUUUUGGAGUACUCGUGGUCG
Method in brief: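 The eight P1ex-region nucleotides of an intron in the knt kanamycin-resistance gene on pET-22b(+) were all randomised and the library put into E. coli BL21(DE3). Six replicate transformations were grown overnight at 37°C or 30°C on LB agar with or without 25 μg/mL kanamycin, together with 100 μg/mL carbenicillin, 50 μM IPTG and 0.2% rhamnose. Colonies were pooled and amplicon-sequenced on an Illumina HiSeq 2500. Fitness from DiMSum is the error-weighted combination of wild-type-normalised replicate fold changes, kanamycin over none.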

| Sequence | self-splicing fitness (ln) (30 °C) | self-splicing fitness (ln) (37 °C) |
| --- | --- | --- |
| AAACAGCAAUAUUACGGCCG | -1.69 ± 0.13 | -0.732 ± 0.16 |
| CAACAGCAAUAUUACGCUUC | -3.83 ± 0.24 | -2.18 ± 0.2 |
| CUCCAGCAAUAUUACGUGAG | -3.61 ± 0.15 | -2.62 ± 0.18 |
| CUUCAGCAAUAUUACGCUAA | -3.37 ± 0.26 | -2.3 ± 0.3 |
| AGGGAGCAAUAUUACGAAAG | -1.91 ± 0.14 | -2.14 ± 0.24 |
| AGCCAGCAAUAUUACGAAGA | -1.84 ± 0.26 | -1.46 ± 0.2 |
| AUGAAGCAAUAUUACGCAGC | -2.75 ± 0.24 | -0.841 ± 0.38 |
| CCGAAGCAAUAUUACGUUCA | -2.76 ± 0.16 | -0.988 ± 0.23 |
| AGCGAGCAAUAUUACGUGUA | -2.83 ± 0.12 | -1.98 ± 0.13 |
| CACUAGCAAUAUUACGCAUU | -3.06 ± 0.23 | -2.17 ± 0.17 |
| GAUCAGCAAUAUUACGCAUC | -4.75 ± 0.31 | -3.11 ± 0.24 |
| GCUUAGCAAUAUUACGGGCA | -2.24 ± 0.27 | -0.778 ± 0.19 |
| CCGGAGCAAUAUUACGUUAU | -2.97 ± 0.31 | -2.01 ± 0.23 |
| AGCCAGCAAUAUUACGUAAU | -1.71 ± 0.11 | -0.608 ± 0.12 |
| CUAGAGCAAUAUUACGUGGA | -3.21 ± 0.19 | -1.68 ± 0.18 |
| UAUCAGCAAUAUUACGAGCU | -2.71 ± 0.28 | -1.35 ± 0.21 |
| UAUAAGCAAUAUUACGGAGG | -2.6 ± 0.28 | -1.67 ± 0.19 |
| GGCAAGCAAUAUUACGACCA | -1.23 ± 0.12 | -0.321 ± 0.13 |
| GUAGAGCAAUAUUACGCCUG | -1.21 ± 0.31 | -0.594 ± 0.32 |
| CGAUAGCAAUAUUACGCGCU | -0.899 ± 0.12 | -1.02 ± 0.12 |

| Sequence | self-splicing fitness (ln) (30 °C) | self-splicing fitness (ln) (37 °C) |
| --- | --- | --- |
| CCGAAGCAAUAUUACGAAGA | -3.27 ± 0.39 |  |
| UGUGAGCAAUAUUACGUAAU |  | -2.2 ± 0.27 |
| GGCUAGCAAUAUUACGAUGC | -1.03 ± 0.15 | -0.519 ± 0.28 |
| AGUUAGCAAUAUUACGGCAA | -0.82 ± 0.08 | 0.163 ± 0.11 |
| AGCGAGCAAUAUUACGACGC | -1.92 ± 0.25 | 0.245 ± 0.2 |
| GUAUAGCAAUAUUACGUCAC | -3 ± 0.29 | -1.7 ± 0.26 |
| UAUAAGCAAUAUUACGUAAA | -2.23 ± 0.12 | -0.632 ± 0.14 |
| GGGUAGCAAUAUUACGGAAC | -0.98 ± 0.11 | -1.49 ± 0.19 |
| UAUUAGCAAUAUUACGCAGU | -2.78 ± 0.28 | -2.72 ± 0.26 |
| AUGCAGCAAUAUUACGAAGA | -1.8 ± 0.18 | -2.36 ± 0.27 |
| UUACAGCAAUAUUACGUGGA | -1.88 ± 0.095 | -1.41 ± 0.094 |
| UUAGAGCAAUAUUACGUUCU | -4.07 ± 0.27 | -2.92 ± 0.3 |
| GGUGAGCAAUAUUACGUUCG | -2.65 ± 0.37 | -2.44 ± 0.32 |
| UUAAAGCAAUAUUACGAAAC |  | -1.33 ± 0.29 |
| AGAAAGCAAUAUUACGCGCU | -0.789 ± 0.15 | -1.26 ± 0.2 |
| CCCUAGCAAUAUUACGAGCA | -2.64 ± 0.21 | -3.08 ± 0.18 |
| GCUCAGCAAUAUUACGCCCG |  | -0.341 ± 0.44 |
| AUAUAGCAAUAUUACGCGCU | 0.0604 ± 0.24 | -0.878 ± 0.38 |
| AAUAAGCAAUAUUACGAGCG | -1.5 ± 0.15 | -0.155 ± 0.17 |
